One test concerns the target HLA-C*04:01. The experiment in a line: IEDB peptide-MHC binding, purified MHC/direct/fluorescence; filed as Kd, often an IC50 or EC50 that approximates it; ≥ and ≤ were set here for values at or beyond the usual limits of such assays.
Test [1] has as its target HLA-A*24:02. The experiment in a line: IEDB peptide-MHC binding, purified MHC/competitive/fluorescence; filed as Kd, often an IC50 or EC50 that approximates it; ≥ and ≤ were set here for values at or beyond the usual limits of such assays.
The target of test [2] is HLA-A*01:01. The experiment in a line: IEDB peptide-MHC binding, purified MHC/direct/fluorescence; filed as Kd, often an IC50 or EC50 that approximates it; ≥ and ≤ were set here for values at or beyond the usual limits of such assays. To be noted: source organism: Marburg virus - Musoke, Kenya, 1980.
For test [3], the target named is HLA-A*02:01. The description is as above. To be noted: source organism: Marburg virus - Musoke, Kenya, 1980.
The next test has as its target HLA-A*26:01. The test is described as above. To be noted: source organism: Ravn virus - Ravn, Kenya, 1987.
The target in test [4] is HLA-A*68:02. The description is as above. The following applies: source organism: Marburg virus - Musoke, Kenya, 1980.
Another test deals with HLA-A*69:01. The description is as above. The following applies: source organism: Marburg virus - Musoke, Kenya, 1980.
A further test concerns the target HLA-B*07:02. Described as above. To be noted: source organism: Marburg virus - Musoke, Kenya, 1980.
Test [5] addresses HLA-B*08:01. The test is described as above. To be noted: source organism: Ravn virus - Ravn, Kenya, 1987.
The target in the next test is HLA-B*08:02. The test is described as above. To be noted: source organism: Ravn virus - Ravn, Kenya, 1987.
A further test addresses HLA-B*15:09. Described as above. To be noted: source organism: Ravn virus - Ravn, Kenya, 1987.
A further test addresses HLA-B*18:01. The description is as above. To be noted: source organism: Marburg virus - Musoke, Kenya, 1980.
The target of the next test is HLA-B*27:05. The test is described as above. The following applies: source organism: Marburg virus - Musoke, Kenya, 1980.
The target of a further test is HLA-B*38:01. The description is as above. The following applies: source organism: Ravn virus - Ravn, Kenya, 1987.
Another test addresses HLA-B*39:01. The test is described as above. The following applies: source organism: Marburg virus - Musoke, Kenya, 1980.
For a further test, the target named is HLA-B*40:01. The test is described as above. The following applies: source organism: Marburg virus - Musoke, Kenya, 1980.
The target in a further test is HLA-B*46:01. The test is described as above. To be noted: source organism: Marburg virus - Musoke, Kenya, 1980.
The next test deals with HLA-B*48:01. Described as above. To be noted: source organism: Marburg virus - Musoke, Kenya, 1980.
A further test has as its target HLA-B*57:01. The test is described as above. The following applies: source organism: Marburg virus - Musoke, Kenya, 1980.
A further test addresses HLA-B*58:01. The test is described as above. To be noted: source organism: Marburg virus - Musoke, Kenya, 1980.
For a further test, the target named is HLA-A*26:02. As to the kind of experiment: IEDB peptide-MHC binding, purified MHC/competitive/fluorescence; filed as Kd, often an IC50 or EC50 that approximates it; ≥ and ≤ were set here for values at or beyond the usual limits of such assays. The following applies: source organism: Orthomarburgvirus marburgense.
In test [6] the target is HLA-B*15:01. The description is as above. To be noted: source organism: Orthomarburgvirus marburgense.
The target in the next test is HLA-B*15:17. The test is described as above. The following applies: source organism: Orthomarburgvirus marburgense.
The target in another test is HLA-B*35:01. The description is as above. The following applies: source organism: Orthomarburgvirus marburgense.
Test [7] deals with HLA-A*02:01. The test is described as above.
For another test, the target named is HLA-A*31:01. The test is described as above. To be noted: source organism: Shigella flexneri 5 str. 8401.
Another test has as its target HLA-A*32:15. The test is described as above. The following applies: source organism: Shigella flexneri 5 str. 8401.
Test [8] addresses HLA-B*08:01. Described as above. To be noted: source organism: Shigella flexneri 5 str. 8401.
A further test addresses HLA-B*15:42. The description is as above. To be noted: source organism: Shigella flexneri 5 str. 8401.
The next test concerns the target HLA-B*45:06. The description is as above. The following applies: source organism: Shigella flexneri 5 str. 8401.
For another test, the target named is HLA-B*83:01. The description is as above. The following applies: source organism: Shigella flexneri 5 str. 8401.
Test [9] addresses HLA-B*15:01. The experiment in a line: IEDB peptide-MHC binding, purified MHC/direct/fluorescence; filed as Kd, often an IC50 or EC50 that approximates it; ≥ and ≤ were set here for values at or beyond the usual limits of such assays. The following applies: source organism: Marburg virus - Musoke, Kenya, 1980.
A further test deals with HLA-C*03:03. Described as above. The following applies: source organism: Orthomarburgvirus marburgense.
Test [10] concerns the target HLA-A*01:01. As to the kind of experiment: IEDB peptide-MHC binding, purified MHC/competitive/fluorescence; filed as Kd, often an IC50 or EC50 that approximates it; ≥ and ≤ were set here for values at or beyond the usual limits of such assays. To be noted: source organism: Orthomarburgvirus marburgense.
The target of another test is HLA-A*02:06. The test is described as above. The following applies: source organism: Orthomarburgvirus marburgense.
Test [11] has as its target HLA-A*68:02. The description is as above. The following applies: source organism: Orthomarburgvirus marburgense.
Test [12] addresses HLA-A*24:02. As to the kind of experiment: IEDB peptide-MHC binding, purified MHC/competitive/fluorescence; ≥ and ≤ were set here for values at or beyond the usual limits of such assays.
Test [13] has as its target HLA-B*08:01. Described as above.
Test [14] deals with HLA-B*15:01. Described as above. To be noted: source organism: Zaire ebolavirus.
Test [15] concerns the target HLA-A*02:01. The description is as above. The following applies: source organism: Variola virus.
Where [16] appears, read: source organism: Rickettsia typhi str. Wilmington.
Setting [17] is: source organism: Shigella flexneri 5 str. 8401.
The mark [18] stands for this setting: source organism: Salmonella enterica subsp. enterica serovar Typhi str. CT18.
Setting [19] is: source organism: Zaire ebolavirus.
[20] abbreviates: source organism: Vaccinia virus Copenhagen.

This is an account of results in the Immune Epitope Database (IEDB).

On to IYYWTAWLI, for which the dissociation constant Kd is ≥ 20 µM in the test with HLA-C*04:01 (setting [16]) and 0.0017 µM with HLA-A*24:02 [1] (setting [16]).
For IHLDKGGQF, the Kd in the test with HLA-A*01:01 [2], with HLA-A*02:01 [3], in the test with HLA-A*26:01, with HLA-A*68:02 [4], with HLA-A*69:01 and in the test with HLA-B*07:02 was ≥ 20 µM in each case. Further, the Kd is ≥ 20 µM with HLA-B*08:01 [5]; ≥ 20 µM in the test with HLA-B*08:02; 7.14 µM in the test with HLA-B*15:09; ≥ 20 µM with HLA-B*18:01; ≥ 20 µM with HLA-B*27:05; ≥ 20 µM with HLA-B*38:01. The Kd in the test with HLA-B*39:01, with HLA-B*40:01, with HLA-B*46:01, with HLA-B*48:01, with HLA-B*57:01 and with HLA-B*58:01 was ≥ 20 µM throughout. Further, the equilibrium dissociation constant (Kd) in the test with HLA-A*26:02, with HLA-B*15:01 [6], with HLA-B*15:17 and in the test with HLA-B*35:01 was ≥ 20 µM each time.
As for IIMRRFFYF, the Kd was 0.0329 µM with HLA-A*02:01 [7] (setting [17]); ≤ 0.0001 µM with HLA-A*24:02 [1] (setting [17]); 0.0012 µM in the test with HLA-A*31:01; 0.0677 µM with HLA-A*32:15; 0.0222 µM in the test with HLA-B*08:01 [8]; ≥ 5 µM with HLA-B*15:42. Further, the Kd in the test with HLA-B*45:06 and in the test with HLA-B*83:01 was ≥ 5 µM in each case.
With ISDPLTSGL, the equilibrium dissociation constant (Kd) in the test with HLA-A*26:01, in the test with HLA-B*07:02, with HLA-B*08:01 [5], in the test with HLA-B*15:01 [9], in the test with HLA-B*18:01 and with HLA-B*27:05 was ≥ 20 µM throughout. Also, the Kd in the test with HLA-B*38:01 was 5.03 µM; with HLA-B*39:01, ≥ 20 µM; with HLA-B*40:01, ≥ 20 µM; with HLA-B*46:01 it was ≥ 20 µM; with HLA-B*48:01 it was ≥ 20 µM; with HLA-B*57:01, ≥ 20 µM. The Kd with HLA-B*58:01 was 0.415 µM; with HLA-C*03:03, ≥ 20 µM; with HLA-A*01:01 [10], 1.03 µM; with HLA-A*02:01 [7] (source organism: Orthomarburgvirus marburgense) it was 0.0681 µM; with HLA-A*02:06 it was 0.0206 µM; in the test with HLA-A*68:02 [11], ≥ 20 µM. The Kd with HLA-B*15:17 was 0.0132 µM; with HLA-B*35:01, ≥ 20 µM.
Turning to IYASRPLDF, the dissociation constant (Kd) was ≥ 20 µM with HLA-C*04:01 (setting [18]) and ≤ 0.0001 µM with HLA-A*24:02 [1] (setting [18]).
Consider DRFKRTSFF, for which the figures for the half-inhibitory concentration (IC50) with HLA-A*24:02 [12] (setting [19]), with HLA-B*08:01 [13] (setting [19]) and in the test with HLA-B*15:01 [14] were 1.22 µM, 5.43 µM and ≥ 181 µM, respectively.
Consider LSLPRIALV, for which the results for the IC50 with HLA-A*02:01 [15] and with HLA-B*08:01 [13] (source organism: Variola virus) were 0.617 µM and ≥ 285 µM, respectively.
For the sequence GYFLKIKVT, the values for the IC50 with HLA-A*24:02 [12] (setting [20]) and with HLA-B*08:01 [13] (setting [20]) were ≥ 215 µM and ≥ 231 µM, respectively.
VMPLLVWLF: the Kd in the test with HLA-A*24:02 [1] (source organism: Campylobacter jejuni subsp. jejuni NCTC 11168 = ATCC 700819) was found to be 0.0029 µM.

The term Kd denotes the concentration at which binding is half-saturated. Read a high Kd as lower affinity. As usually defined, the IC50 is the midpoint of a concentration-inhibition curve.
